Positions count from the first letter of the chain named. Names and notes keep the numbering of the source. Each block holds one binder with its values, some of them ahead of it.
Legend:
[1] = target: T1, CD38 naturally expressed on Daudi cells (human, UniProt P28907 1-300); test: FACS; FIG. 24
[2] = target: CD33 naturally expressed on HL60 cells (human, UniProt P20138 18-364); test: FACS
[3] = target: T1, CD38 naturally expressed on Daudi cells; test: FACS; FIG. 23
CS1-Fc = target: T2, CS1-Fc (UniProt Q9NQ25 23-226); test: ELISA
T2 chain: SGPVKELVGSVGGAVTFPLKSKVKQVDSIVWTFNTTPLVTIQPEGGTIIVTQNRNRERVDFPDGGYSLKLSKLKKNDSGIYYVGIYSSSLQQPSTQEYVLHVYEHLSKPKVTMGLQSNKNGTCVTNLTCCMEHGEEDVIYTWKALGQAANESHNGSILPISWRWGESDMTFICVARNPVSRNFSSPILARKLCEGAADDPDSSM

Sequence of CD33 naturally expressed on HL60 cells (P20138 18-364): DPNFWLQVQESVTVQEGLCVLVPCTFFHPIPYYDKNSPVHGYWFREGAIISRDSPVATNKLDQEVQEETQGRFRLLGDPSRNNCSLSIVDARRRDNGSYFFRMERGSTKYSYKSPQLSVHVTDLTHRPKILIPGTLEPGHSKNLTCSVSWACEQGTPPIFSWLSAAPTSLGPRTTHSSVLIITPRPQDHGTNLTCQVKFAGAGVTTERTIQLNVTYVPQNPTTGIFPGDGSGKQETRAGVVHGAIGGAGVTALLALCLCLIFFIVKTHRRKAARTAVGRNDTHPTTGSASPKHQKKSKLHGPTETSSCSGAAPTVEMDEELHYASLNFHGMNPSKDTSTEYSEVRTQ

EC50 [1]: 4.76 nM
B1: QP42714274 (antibody)
chain 1: not shown
chain 2: EVQLLESGGGLVQPGGSLRLSCAVSGFTFNSFAMSWVRQAPGKGLEWVSAISGSGGGTYYADSVKGRFTISRDNSKNTLYLQMNSLRAEDTAVYFCAKDKILWFGEPVFDYWGQGTLVTVSSASTKGPSVFPLAPSSKSTSGGTAALGCLVKDYFPEPVTVSWNSGALTSGVHTFPAVLQSSGLYSLSSVVTVPSSSLGTQTYICNVNHKPSNTKVDKKVEPKSCDKTHTCPPCPAPEAAGGPSVFLFPPKPKDTLMISRTPEVTCVVVDVSHEDPEVKFNWYVDGVEVHNAKTKPREEQYNSTYRVVSVLTVLHQDWLNGKEYKCKVSNKALPAPIEKTISKAKGQPREPQVYTLPPSREEMTKNQVSLSCAVKGFYPSDIAVEWESNGQPENNYKTTPPVLDSDGSFFLVSKLTVDKSRWQQGNVFSCSVMHEALHNRYTQKSLSLSPGKGGSHHHHHH
chain 3: not shown
chain 4: not shown

EC50 [1]: ~0.289 nM | EC50 [2]: 21.4 nM
B2: QP43354336 (antibody, V domains shown)
VH: QVQLVQSGAEVKKPGESLKVSCKASGYTFTSYYMHWVRQAPGQGLEWMGIINPSGGSTSYAQKFQGRVTMTRDTSTSTVYMELSSLRSEDTAVYYCARGSAYYYDFADYWGQGTLVTVSS
VL: MDMRVPAQLLGLLLLWFPGSRCSYVLTQPSSVSVAPGQTATISCGGHNIGSKNVHWYQQRPGQSPVLVIYQDNKRPSGIPERFSGSNSGNTATLTISGTQAMDEADYYCQVWDNYSVLFGGGTKLTVLR

EC50 [3]: 10.2 nM | EC50 [1]: 8.56 nM
B3: QP42764325 (antibody)
chain 1: DIQMTQSPSSLSASVGDRVTITCKASQDVGIAVAWYQQKPGKVPKLLIYWASTRHTGVPDRFSGSGSGTDFTLTISSLQPEDVATYYCQQYSSYPYTFGQGTKVEIKRTVAAPSVFIFPPSDEQLKSGTASVVCLLNNFYPREAKVQWKVDNALQSGNSQESVTEQDSKDSTYSLSSTLTLSKADYEKHKVYACEVTHQGLSSPVTKSFNRGEC
chain 2: EVQLVESGGGLVQPGGSLRLSCAASGFDFSRYWMSWVRQAPGKGLEWIGEINPDSSTINYAPSLKDKFIISRDNAKNSLYLQMNSLRAEDTAVYYCARPDGNYWYFDVWGQGTLVTVSSASTKGPSVFPLAPSSKSTSGGTAALGCLVKDYFPEPVTVSWNSGALTSGVHTFPAVLQSSGLYSLSSVVTVPSSSLGTQTYICNVNHKPSNTKVDKKVEPKSCDKTHTCPPCPAPEAAGGPSVFLFPPKPKDTLMISRTPEVTCVVVDVSHEDPEVKFNWYVDGVEVHNAKTKPREEQYNSTYRVVSVLTVLHQDWLNGKEYKCKVSNKALPAPIEKTISKAKGQPREPQVYTLPPSREEMTKNQVSLSCAVKGFYPSDIAVEWESNGQPENNYKTTPPVLDSDGSFFLVSKLTVDKSRWQQGNVFSCSVMHEALHNRYTQKSLSLSPGK
chain 3: not shown
chain 4: not shown

EC50 [3]: 8.99 nM
B4: QP42764279 (antibody)
chain 1: B3 chain 1
chain 2: B3 chain 2
chain 3: not shown
chain 4: not shown

EC50 (CS1-Fc): 1.77 µg/mL
B5: CS1/CD16A/IL-15 trifunctional fusion protein QP43394342 (FC with L234A/L235A mutation for eliminating function) (bispecific antibody)
chain 1: not shown
chain 2: not shown
light: B3 chain 1
heavy: EVQLVESGGGLVQPGGSLRLSCAASGFDFSRYWMSWVRQAPGKGLEWIGEINPDSSTINYAPSLKDKFIISRDNAKNSLYLQMNSLRAEDTAVYYCARPDGNYWYFDVWGQGTLVTVSSASTKGPSVFPLAPSSKSTSGGTAALGCLVKDYFPEPVTVSWNSGALTSGVHTFPAVLQSSGLYSLSSVVTVPSSSLGTQTYICNVNHKPSNTKVDKKVEPKSCDKTHTCPPCPAPEAAGGPSVFLFPPKPKDTLMISRTPEVTCVVVDVSHEDPEVKFNWYVDGVEVHNAKTKPREEQYNSTYRVVSVLTVLHQDWLNGKEYKCKVSNKALPAPIEKTISKAKGQPREPQVYTLPPSREEMTKNQVSLSCAVKGFYPSDIAVEWESNGQPENNYKTTPPVLDSDGSFFLVSKLTVDKSRWQQGNVFSCSVMHEALHNRYTQKSLSLSPGKGGSHHHHHH

EC50 (CS1-Fc): ~0.839 µg/mL
B6: CS1/CD16A/IL-15 trifunctional fusion protein QP7434262 (FC wildtype) (bispecific antibody)
chain 1: not shown
chain 2: not shown
light: B3 chain 1
heavy: B5 heavy with A236L, A237L

EC50 (CS1-Fc): 5.24 µg/mL
B7: QP344944564368 (antibody)
chain 1: not shown
chain 2: MEFGLSWLFLVAILKGVQCEVQLVESGGGLVQPGGSLRLSCAASGFDFSRYWMSWVRQAPGKGLEWIGEINPDSSTINYAPSLKDKFIISRDNAKNSLYLQMNSLRAEDTAVYYCARPDGNYWYFDVWGQGTLVTVSSASTKGPSVFPLAPSSKSTSGGTAALGCLVKDYFPEPVTVSWNSGALTSGVHTFPAVLQSSGLYSLSSVVTVPSSSLGTQTYICNVNHKPSNTKVDKKVEPKSCDKTHTCPPCPAPEAAGGPSVFLFPPKPKDTLMISRTPEVTCVVVDVSHEDPEVKFNWYVDGVEVHNAKTKPREEQYNSTYRVVSVLTVLHQDWLNGKEYKCKVSNKALPAPIEKTISKAKGQPREPQVYTLPPSREEMTKNQVSLSCAVKGFYPSDIAVEWESNGQPENNYKTTPPVLDSDGSFFLVSKLTVDKSRWQQGNVFSCSVMHEALHNRYTQKSLSLSPGKGGSHHHHHH
chain 3: MDMRVPAQLLGLLLLWFPGSRCDIQMTQSPSSLSASVGDRVTITCKASQDVGIAVAWYQQKPGKVPKLLIYWASTRHTGVPDRFSGSGSGTDFTLTISSLQPEDVATYYCQQYSSYPYTFGQGTKVEIKRTVAAPSVFIFPPSDEQLKSGTASVVCLLNNFYPREAKVQWKVDNALQSGNSQESVTEQDSKDSTYSLSSTLTLSKADYEKHKVYACEVTHQGLSSPVTKSFNRGEC

Source: patent publication US20240383985A1 (published 2024)
